From patent US20260265379A1 (IMCHECK THERAPEUTICS, published 2026) come the findings set out here.

For assay [1], the target named is T1, PD-1 at the surface of Jurkat-PD-1 cells (human, UniProt Q15116 25-288).
T1 construct: whole, on cells
Put plainly: flow cytometry, Jurkat-PD-1 cells.

In the next assay the target is T2, recombinant human BTN3A1 (human, UniProt O00481 30-254).
T2 construct: Soluble form of the antigen used in SPR; also called rhBTN3A1; recombinant BTN3A1 protein
Briefly: SPR. On the procedure: SPR measures the interactions between two or more biomolecules. In capture kinetics analysis, an antibody is immobilized onto a gold-plated prism. The immobilized antibody is referred to as the ligand. An injection of antigen, referred to as the analyte, is carried out, often as a concentration series. The captured analytes are removed from the sensor chip surface using a regenerating agent, for example a low pH or high ionic strength solution. If investigating binding to several analytes, the antibodies are recaptured from solution before each analyte titration series. The instrument records the changes in refractive indexes (due to the accumulation or depletion of mass) in time and plots the results as sensorgrams.
Affinity measurements with respect to BTN3A, PD-1 and PD-L1 were performed by SPR technology, for instance in a Carterra LSA Platform instrument using a soluble form of the antigen as the analyte and the antibody as the ligand. Binding was also assessed through in cellulo binding assays, on cell lines (e.g. HEK293T cells) genetically modified to express the targets of interest or genetically modified to extinct target expression.
The 69 produced bsAbs and control mAbs were also evaluated for their binding affinity to recombinant proteins by SPR assays. The equilibrium dissociation constant (KD) was then calculated for constructs showing detectable binding.
In general terms: Surface plasmon resonance follows binding to a sensor surface in real time, without labels.

The target in assay [2] is T3, BTN3A1 at the surface of HEK-BTN3A1 cells (human, UniProt O00481 30-513).
T3 construct: HEK 293T BTN2A/BTN3A KO cells transduced with a BTN3A1 expressing vector
Briefly: flow cytometry, HEK-BTN3A1 cells. On the technique in general: A flow cytometer gives signals particle by particle.

Assay [3] concerns the target T1, PD-1 at the surface of Jurkat-PD-1 cells. Briefly: cell-based or functional assay.

T3 sequence (O00481 30-513 limits assumed): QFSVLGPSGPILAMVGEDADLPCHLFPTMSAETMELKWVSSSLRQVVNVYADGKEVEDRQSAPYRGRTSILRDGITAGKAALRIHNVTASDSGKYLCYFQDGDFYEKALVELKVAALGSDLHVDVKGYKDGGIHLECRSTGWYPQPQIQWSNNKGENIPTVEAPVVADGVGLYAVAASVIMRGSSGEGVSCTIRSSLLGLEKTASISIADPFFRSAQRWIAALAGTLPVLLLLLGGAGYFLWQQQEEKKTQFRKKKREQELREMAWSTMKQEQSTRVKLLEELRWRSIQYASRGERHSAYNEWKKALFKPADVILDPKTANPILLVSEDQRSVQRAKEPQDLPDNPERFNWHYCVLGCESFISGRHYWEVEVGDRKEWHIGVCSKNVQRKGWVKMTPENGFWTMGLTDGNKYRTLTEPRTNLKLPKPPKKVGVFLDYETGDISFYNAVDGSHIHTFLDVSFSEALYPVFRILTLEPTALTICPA
T2 sequence (O00481 30-254 limits assumed): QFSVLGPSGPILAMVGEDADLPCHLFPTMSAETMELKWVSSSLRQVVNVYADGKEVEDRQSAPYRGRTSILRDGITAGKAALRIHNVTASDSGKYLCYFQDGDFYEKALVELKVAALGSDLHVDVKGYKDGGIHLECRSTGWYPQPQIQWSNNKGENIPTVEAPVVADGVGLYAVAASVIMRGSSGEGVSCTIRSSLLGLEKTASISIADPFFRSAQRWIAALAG
T1 sequence (Q15116 25-288): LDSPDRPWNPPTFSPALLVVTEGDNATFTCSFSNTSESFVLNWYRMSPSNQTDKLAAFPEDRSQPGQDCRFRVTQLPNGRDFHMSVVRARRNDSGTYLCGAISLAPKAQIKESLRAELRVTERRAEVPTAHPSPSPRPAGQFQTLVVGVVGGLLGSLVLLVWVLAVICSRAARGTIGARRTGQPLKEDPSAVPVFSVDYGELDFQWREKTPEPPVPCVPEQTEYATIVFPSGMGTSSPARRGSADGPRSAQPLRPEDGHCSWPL

B1: bsAb018 (bispecific antibody)
heavy: EIVLTQSPATLSLSPGERATLSCRASKGVSTSGYSYLHWYQQKPGQAPRLLIYLASYLESGVPARFSGSGSGTDFTLTISSLEPEDFAVYYCQHSRDLPLTFGGGTKVEIKGGGGSGGGGSGGGGSGGGGSQVQLVQSGVEVKKPGASVKVSCKASGYTFTNYYMYWVRQAPGQGLEWMGGINPSNGGTNFNEKFKNRVTLTTDSSTTTAYMELKSLQFDDTAVYYCARRDYRFDMGFDYWGQGTTVTVSSGGGGSGGGGSGGGGSGGGGSQVQLVQSGAEVKKPGASVKLSCKASGYIFTRYYMYWVKQRPGQGLEWIGEINPNNGGTKFNEKFKNRATLTVDKSISTAYMELSRLRSDDTAVYYCSREDDYDGTPFAMDYWGQGTLVTVSSASTKGPSVFPLAPSSKSTSGGTAALGCLVKDYFPEPVTVSWNSGALTSGVHTFPAVLQSSGLYSLSSVVTVPSSSLGTQTYICNVNHKPSNTKVDKRVEPKSCDKTHTCPPCPAPEFEGGPSVFLFPPKPKDTLMISRTPEVTCVVVDVSHEDPEVKFNWYVDGVEVHNAKTKPREEQYNSTYRVVSVLTVLHQDWLNGKEYKCKVSNKALPASIEKTISKAKGQPREPQVYTLPPSREEMTKNQVSLTCLVKGFYPSDIAVEWESNGQPENNYKTTPPVLDSDGSFFLYSKLTVDKSRWQQGNVFSCSVMHEALHNHYTQKSLSLSPG
light: not shown
notes: IgG anti-BTN3A, scFv anti-PD-1
In general, Kd refers to the equilibrium constant for the complex coming apart. For the molecule B1, in assay [1], the “MFI at 100 nM” value amounted to 347000 MFI. In addition, the Kd with recombinant human BTN3A1 came to 0.212 nM. Moreover, in assay [2], the “MFI at 10 nM” value worked out at 502000 MFI and the “MFI at 100 nM” value worked out at 1.08e+06 MFI.

B2: ICT01 (antibody, V domains shown)
VH: QVQLVQSGAEVKKPGASVKLSCKASGYIFTRYYMYWVKQRPGQGLEWIGEINPNNGGTKFNEKFKNRATLTVDKSISTAYMELSRLRSDDTAVYYCSREDDYDGTPFAMDYWGQGTLVTVSS
VL: DIQMTQSPSSLSASVGDRVTITCHASQNINVWLSWYQQKPGKAPKLLIYKASNLHTGVPSRFTGSGSGTDFTFTISSLQPEDIATYYCQQGQTYPYTFGQGTKLEIK
notes: also called anti-BTN3A mAb; mAb 7.2
Take B2: the Kd in the assay with recombinant human BTN3A1 was 0.073 nM. In assay [2], the “MFI at 10 nM” value is 1.01e+06 MFI and the “MFI at 100 nM” value was 1.82e+06 MFI.

B3: bsAb001 (bispecific antibody, human IgG1, kappa)
heavy: QVQLVQSGAEVKKPGASVKLSCKASGYIFTRYYMYWVKQRPGQGLEWIGEINPNNGGTKFNEKFKNRATLTVDKSISTAYMELSRLRSDDTAVYYCSREDDYDGTPFAMDYWGQGTLVTVSSASTKGPSVFPLAPSSKSTSGGTAALGCLVKDYFPEPVTVSWNSGALTSGVHTFPAVLQSSGLYSLSSVVTVPSSSLGTQTYICNVNHKPSNTKVDKRVEPKSCDKTHTCPPCPAPEFEGGPSVFLFPPKPKDTLMISRTPEVTCVVVDVSHEDPEVKFNWYVDGVEVHNAKTKPREEQYNSTYRVVSVLTVLHQDWLNGKEYKCKVSNKALPASIEKTISKAKGQPREPQVYTLPPSREEMTKNQVSLTCLVKGFYPSDIAVEWESNGQPENNYKTTPPVLDSDGSFFLYSKLTVDKSRWQQGNVFSCSVMHEALHNHYTQKSLSLSPGGGGGSGGGGSGGGGSGGGGSQVQLVQSGVEVKKPGASVKVSCKASGYTFTNYYMYWVRQAPGQGLEWMGGINPSNGGTNFNEKFKNRVTLTTDSSTTTAYMELKSLQFDDTAVYYCARRDYRFDMGFDYWGQGTTVTVSSGGGGSGGGGSGGGGSGGGGSEIVLTQSPATLSLSPGERATLSCRASKGVSTSGYSYLHWYQQKPGQAPRLLIYLASYLESGVPARFSGSGSGTDFTLTISSLEPEDFAVYYCQHSRDLPLTFGGGTKVEIK
light: not shown
notes: IgG anti-BTN3A, scFv anti-PD-1 (VH-VL) at heavy chain C-terminus
Take B3: in assay [1], the “MFI at 10 nM” value was found to be 179000 MFI and the “MFI at 100 nM” value is 396000 MFI. Besides, the “Jurkat-PD-1 activation at 10 nM” value in assay [3] was 8 fold-change to medium. Moreover, in assay [2], the “MFI at 10 nM” value worked out at 507000 MFI and the “MFI at 100 nM” value was determined as 710000 MFI.

B4: bsAb014 (bispecific antibody)
heavy: QVQLVQSGAEVKKPGASVKLSCKASGYIFTRYYMYWVKQRPGQGLEWIGEINPNNGGTKFNEKFKNRATLTVDKSISTAYMELSRLRSDDTAVYYCSREDDYDGTPFAMDYWGQGTLVTVSSASTKGPSVFPLAPSSKSTSGGTAALGCLVKDYFPEPVTVSWNSGALTSGVHTFPAVLQSSGLYSLSSVVTVPSSSLGTQTYICNVNHKPSNTKVDKRVEPKSCDKTHTCPPCPAPEFEGGPSVFLFPPKPKDTLMISRTPEVTCVVVDVSHEDPEVKFNWYVDGVEVHNAKTKPREEQYNSTYRVVSVLTVLHQDWLNGKEYKCKVSNKALPASIEKTISKAKGQPREPQVYTLPPSREEMTKNQVSLTCLVKGFYPSDIAVEWESNGQPENNYKTTPPVLDSDGSFFLYSKLTVDKSRWQQGNVFSCSVMHEALHNHYTQKSLSLSPG
light: not shown
notes: as for B1
Consider B4, for which, in assay [1], the “MFI at 10 nM” value was determined as 165000 MFI and the “MFI at 100 nM” value was 290000 MFI. For the same molecule, in the assay with recombinant human BTN3A1, the Kd turned out to be 0.083 nM. For the same molecule, in assay [3], the “Jurkat-PD-1 activation at 10 nM” value is 5.9 fold-change to medium and the “Jurkat-PD-1 activation at 100 nM” value is 1.9 fold-change to medium. In addition, in assay [2], the “MFI at 10 nM” value came to 464000 MFI and the “MFI at 100 nM” value worked out at 812000 MFI.

B5: bsAb042 (bispecific antibody)
heavy 1: QVQLVQSGVEVKKPGASVKVSCKASGYTFTNYYMYWVRQAPGQGLEWMGGINPSNGGTNFNEKFKNRVTLTTDSSTTTAYMELKSLQFDDTAVYYCARRDYRFDMGFDYWGQGTTVTVSS
heavy 2: QVQLVQSGAEVKKPGASVKLSCKASGYIFTRYYMYWVKQRPGQGLEWIGEINPNNGGTKFNEKFKNRATLTVDKSISTAYMELSRLRSDDTAVYYCSREDDYDGTPFAMDYWGQGTLVTVSSGGGGSGGGGSGGGGSGGGGSDIQMTQSPSSLSASVGDRVTITCHASQNINVWLSWYQQKPGKAPKLLIYKASNLHTGVPSRFTGSGSGTDFTFTISSLQPEDIATYYCQQGQTYPYTFGQGTKLEIKGGGGSGGGGSGGGGSGGGGS
light: EIVLTQSPATLSLSPGERATLSCRASKGVSTSGYSYLHWYQQKPGQAPRLLIYLASYLESGVPARFSGSGSGTDFTLTISSLEPEDFAVYYCQHSRDLPLTFGGGTKVEIKRTVAAPSVFIFPPSDEQLKSGTASVVCLLNNFYPREAKVQWKVDNALQSGNSQESVTEQDSKDSTYSLSSTLTLSKADYEKHKVYACEVTHQGLSSPVTKSFNRGECGGGGSGGGGSGGGGSGGGGSDIQMTQSPSSLSASVGDRVTITCHASQNINVWLSWYQQKPGKAPKLLIYKASNLHTGVPSRFTGSGSGTDFTFTISSLQPEDIATYYCQQGQTYPYTFGQGTKLEIKGGGGSGGGGSGGGGSGGGGSQVQLVQSGAEVKKPGASVKLSCKASGYIFTRYYMYWVKQRPGQGLEWIGEINPNNGGTKFNEKFKNRATLTVDKSISTAYMELSRLRSDDTAVYYCSREDDYDGTPFAMDYWGQGTLVTVSS
notes: one Fab arm anti-PD-1, two scFv anti-BTN3A; not shown: IgG1 CH1-hinge-CH2-CH3; CH2-CH3 (Fc)
As for B5, in assay [1], the “MFI at 10 nM” value turned out to be 212000 MFI and the “MFI at 100 nM” value was found to be 362000 MFI. Besides, the Kd with recombinant human BTN3A1 came out at 0.093 nM. For the same molecule, in assay [2], the “MFI at 10 nM” value was found to be 824000 MFI and the “MFI at 100 nM” value turned out to be 1.24e+06 MFI.

B6: bsAb026 (bispecific antibody)
heavy: QVQLVQSGAEVKKPGASVKLSCKASGYIFTRYYMYWVKQRPGQGLEWIGEINPNNGGTKFNEKFKNRATLTVDKSISTAYMELSRLRSDDTAVYYCSREDDYDGTPFAMDYWGQGTLVTVSSASTKGPSVFPLAPSSKSTSGGTAALGCLVKDYFPEPVTVSWNSGALTSGVHTFPAVLQSSGLYSLSSVVTVPSSSLGTQTYICNVNHKPSNTKVDKRVEPKSCDKTHTCPPCPAPEFEGGPSVFLFPPKPKDTLMISRTPEVTCVVVDVSHEDPEVKFNWYVDGVEVHNAKTKPREEQYNSTYRVVSVLTVLHQDWLNGKEYKCKVSNKALPASIEKTISKAKGQPREPQVYTLPPSREEMTKNQVSLTCLVKGFYPSDIAVEWESNGQPENNYKTTPPVLDSDGSFFLYSKLTVDKSRWQQGNVFSCSVMHEALHNHYTQKSLSLSPGGGGGSGGGGSGGGGSGGGGSQVQLVQSGVEVKKPGASVKVSCKASGYTFTNYYMYWVRQAPGQGLEWMGGINPSNGGTNFNEKFKNRVTLTTDSSTTTAYMELKSLQFDDTAVYYCARRDYRFDMGFDYWGQGTTVTVSSASTKGPSVFPLAPSSKSTSGGTAALGCLVKDYFPEPVTVSWNSGALTSGVHTFPAVLQSSGLYSLSSVVTVPSSSLGTQTYICNVNHKPSNTKVDKKVEPKSCDKTHTGGSSGSGSGSTGTSSSGTGTSAGTTGTSASTSGSGSGGGGGSGGGGSAGGEIVLTQSPATLSLSPGERATLSCRASKGVSTSGYSYLHWYQQKPGQAPRLLIYLASYLESGVPARFSGSGSGTDFTLTISSLEPEDFAVYYCQHSRDLPLTFGGGTKVEIKRTVAAPSVFIFPPSDEQLKSGTASVVCLLNNFYPREAKVQWKVDNALQSGNSQESVTEQDSKDSTYSLSSTLTLSKADYEKHKVYACEVTHQGLSSPVTKSFNRGEC
light: not shown
notes: IgG anti-BTN3A, scFab anti-PD-1; formula printed IgG(H)-VH-CH1-linker1-VL-CL-linker2-
Turning to B6, the “MFI at 10 nM” value was 73300 MFI in assay [1] and 410000 MFI in assay [2]. Also, the “MFI at 100 nM” value in assay [1] was 257000 MFI; in assay [2] it was 1.03e+06 MFI. In the assay with recombinant human BTN3A1, the Kd came out at 0.068 nM.
